Measurements taken from article PMC8565330.

B1: NRAS rM4 (ssRNA)
RNA: GUGUAAAAGGGGCGGGUCUGGGUGCG
B2: PITX1 rM4 (ssRNA)
RNA: GAGCGCGGAAGCGCGCGCGCGCGCGCGCGG

Target: GST-G3BP1 (human, UniProt Q13283 1-466)
Assay: fluorescence anisotropy

GST-G3BP1, sequence (Q13283 whole entry): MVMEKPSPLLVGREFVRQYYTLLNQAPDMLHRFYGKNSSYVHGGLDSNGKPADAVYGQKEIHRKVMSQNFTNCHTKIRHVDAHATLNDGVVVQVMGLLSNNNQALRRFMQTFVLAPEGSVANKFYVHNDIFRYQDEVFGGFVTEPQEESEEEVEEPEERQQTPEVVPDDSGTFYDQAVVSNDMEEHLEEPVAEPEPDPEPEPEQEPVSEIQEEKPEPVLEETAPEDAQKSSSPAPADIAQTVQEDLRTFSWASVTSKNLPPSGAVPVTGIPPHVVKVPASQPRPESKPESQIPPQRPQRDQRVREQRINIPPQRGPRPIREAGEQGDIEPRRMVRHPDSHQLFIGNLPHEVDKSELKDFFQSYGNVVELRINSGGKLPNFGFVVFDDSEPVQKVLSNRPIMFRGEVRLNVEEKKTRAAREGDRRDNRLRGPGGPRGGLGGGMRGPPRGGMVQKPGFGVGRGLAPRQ

Binder | Kd [nM]
B1 | 266 ± 36
B2 | 761 ± 73
